# Key:
# [1] = biological target: the molecule itself; assay: native gel or EMSA
# [2] = biological target: the molecule itself; assay: affinity purification with mass spectrometry + native gel or EMSA
Protein,stoichiometry N [1],stoichiometry N [2]
endogenous TRAP1 (natural protein) STQTAEDKEEPLHSIISSTESVQGSTSKHEFQAETKKLLDIVARSLYSEKEVFIRELISNASDALEKLRHKLVSDGQALPEMEIHLQTNAEKGTITIQDTGIGMTQEELVSNLGTIARSGSKAFLDALQNQAEASSKIIGQFGVGFYSAFMVADRVEVYSRSAAPGSLGYQWLSDGSGVFEIAEASGVRTGTKIIIHLKSDCKEFSSEARVRDVVTKYSNFVSFPLYLNGRRMNTLQAIWMMDPKDVREWQHEEFYRYVAQAHDKPRYTLHYKTDAPLNIRSIFYVPDMKPSMFDVSRELGSSVALYSRKVLIQTKATDILPKWLRFIRGVVDSEDIPLNLSRELLQESALIRKLRDVLQQRLIKFFIDQSKKDAEKYAKFFEDYGLFMREGIVTATEQEVKEDIAKLLRYESSALPSGQLTSLSEYASRMRAGTRNIYYLCAPNRHLAEHSPYYEAMKKKDTEVLFCFEQFDELTLLHLREFDKKKLISVETDIVVDHYKEEKFEDRSPAAECLSEKETEELMAWMRNVLGSRVTNVKVTLRLDTHPAMVTVLEMGAARHFLRMQQLAKTQEERAQLLQPTLEINPRHALIKKLNQLRASEPGLAQLLVDQIYENAMIAAGLVDDPRAMVGRLNELLVKALERH,4,
TRAP1-GST fusion protein (natural protein) STQTAEDKEEPLHSIISSTESVQGSTSKHEFQAETKKLLDIVARSLYSEKEVFIRELISNASDALEKLRHKLVSDGQALPEMEIHLQTNAEKGTITIQDTGIGMTQEELVSNLGTIARSGSKAFLDALQNQAEASSKIIGQFGVGFYSAFMVADRVEVYSRSAAPGSLGYQWLSDGSGVFEIAEASGVRTGTKIIIHLKSDCKEFSSEARVRDVVTKYSNFVSFPLYLNGRRMNTLQAIWMMDPKDVREWQHEEFYRYVAQAHDKPRYTLHYKTDAPLNIRSIFYVPDMKPSMFDVSRELGSSVALYSRKVLIQTKATDILPKWLRFIRGVVDSEDIPLNLSRELLQESALIRKLRDVLQQRLIKFFIDQSKKDAEKYAKFFEDYGLFMREGIVTATEQEVKEDIAKLLRYESSALPSGQLTSLSEYASRMRAGTRNIYYLCAPNRHLAEHSPYYEAMKKKDTEVLFCFEQFDELTLLHLREFDKKKLISVETDIVVDHYKEEKFEDRSPAAECLSEKETEELMAWMRNVLGSRVTNVKVTLRLDTHPAMVTVLEMGAARHFLRMQQLAKTQEERAQLLQPTLEINPRHALIKKLNQLRASEPGLAQLLVDQIYENAMIAAGLVDDPRAMVGRLNELLVKALERH,,4

# — article doi:10.1101/679431 (bioRxiv, 2019)
